Data from article PMC9122090 (Structure (London, England : 1993), 2021).
One block for each binder: values may come before it.

Columns and labels:
[1] = molecular target: T1, FHOD1-N (human FHOD1 residues 1–339), wild type (human, UniProt Q9Y613 1-339); assay: BLI
T1 sequence (looked up): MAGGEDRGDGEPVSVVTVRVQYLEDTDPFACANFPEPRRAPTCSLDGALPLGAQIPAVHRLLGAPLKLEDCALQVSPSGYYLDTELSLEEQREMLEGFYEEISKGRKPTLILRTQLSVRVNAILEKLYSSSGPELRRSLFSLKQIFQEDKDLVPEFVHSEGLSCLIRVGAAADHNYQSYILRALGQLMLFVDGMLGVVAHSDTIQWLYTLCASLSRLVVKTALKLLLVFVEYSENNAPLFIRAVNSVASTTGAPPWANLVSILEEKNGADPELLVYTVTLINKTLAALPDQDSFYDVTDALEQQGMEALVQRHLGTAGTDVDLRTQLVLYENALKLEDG

[2] = molecular target: T1, FHOD1-N (human FHOD1 residues 1–339), …; assay: SEC
[3] = molecular target: T2, Nes2G SR11–12-FHOD1-N complex (human, UniProt Q9Y613 1-339; Q8WXH0 1425-1649); assay: SEC
T2 sequence (looked up) 1: T1 sequence (looked up)
T2 sequence (looked up) 2: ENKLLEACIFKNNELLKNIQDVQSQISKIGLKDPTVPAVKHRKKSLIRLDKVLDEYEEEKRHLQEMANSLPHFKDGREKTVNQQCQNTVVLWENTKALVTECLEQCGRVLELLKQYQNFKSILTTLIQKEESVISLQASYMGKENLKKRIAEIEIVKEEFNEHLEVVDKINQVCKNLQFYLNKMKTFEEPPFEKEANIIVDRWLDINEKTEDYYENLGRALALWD

[4] = molecular target: T1, FHOD1-N (human FHOD1 residues 1–339), …; assay: SEC; remark: listed apart in the source

B1: N-terminally AVI-tagged, biotinylated Nes1G SR17–18 (residues 1976–2200) (domain or fragment, human, UniProt Q8NF91 1976-2200, looked up)
chain: LAVLKKAFQDQKEELLKSIEDIEERTDKERLKEPTRQALQQRLRVFNQLEDELNSHEHELCWLKDKAKQIAQKDVAFAPEVDREINRLEVTWDDTKRLIHENQGQCCGLIDLMREYQNLKSAVSKVLENASSVIVTRTTIKDQEDLKWAFSKHETAKNKMNYKQKDLDNFTSKGKHLLSELKKIHSSDFSLVKTDMESTVDKWLDVSEKLEENMDRLRVSLSIWD
modifications: biotin on the AVI sequence
Kd [1]: 85 nM

B2: N-terminally AVI-tagged, biotinylated Nes1G SR18 (residues 2076–2200) (domain or fragment, human, UniProt Q8NF91 2076-2200, looked up)
chain: ENQGQCCGLIDLMREYQNLKSAVSKVLENASSVIVTRTTIKDQEDLKWAFSKHETAKNKMNYKQKDLDNFTSKGKHLLSELKKIHSSDFSLVKTDMESTVDKWLDVSEKLEENMDRLRVSLSIWD
modifications: biotin on the AVI sequence
binding result [1]: binds

B3: N-terminally AVI-tagged, biotinylated Nes2G SR11–12 (residues 1425–1649) (domain or fragment, human, UniProt Q8WXH0 1425-1649, looked up)
chain: T2 sequence (looked up) 2
modifications: biotin on the AVI sequence
Kd [1]: 375 nM

B4: Nes1G SR17–18 (human nesprin-1 giant residues 1976–2200) (domain or fragment, UniProt Q8NF91-1 1976-2200, looked up)
chain: B1 chain
binding result [2]: binds

B5: Nes1G SR18 (human nesprin-1 giant residues 2076–2200) (domain or fragment, UniProt Q8NF91-1 2076-2200, looked up)
chain: B2 chain
binding result [2]: binds

Other lines, results leading:

binding result [2]: binds
B6: Nes2G SR11–12 (human nesprin-2 giant residues 1425–1649) (domain or fragment, UniProt Q8WXH0-1 1425-1649, looked up)
chain: T2 sequence (looked up) 2

binding result [3]: binds
binding result [4]: binds
B7: FHOD1 DAD domain (residues 1052–1164), released from MBP-DAD by 3C protease (domain or fragment, human, UniProt Q9Y613 1052-1164, looked up)
chain: SMKSLLTSRPEDTTHNRRSRGMVQSSSPIMPTVGPSTASPEEPPGSSLPSDTSDEIMDLLVQSVTKSSPRALAARERKRSRGNRKSLRRTLKSGLGDDLVQALGLSKGPGLEV
